Measured values: PMC6668832, “Structural basis for recognition of the tumor suppressor protein PTPN14 by the oncoprotein E7 of human papillomavirus” (PLoS Biology, 2019)

B1: PTP domain (residues 886–1187) of human PTPN14 (domain or fragment, UniProt Q15678 886-1187, looked up)
chain: VDATRVPMDERFRTLKKKLEEGMVFTEYEQIPKKKANGIFSTAALPENAERSRIREVVPYEENRVELIPTKENNTGYINASHIKVVVGGAEWHYIATQGPLPHTCHDFWQMVWEQGVNVIAMVTAEEEGGRTKSHRYWPKLGSKHSSATYGKFKVTTKFRTDSVCYATTGLKVKHLLSGQERTVWHLQYTDWPDHGCPEDVQGFLSYLEEIQSVRRHTNSMLEGTKNRHPPIVVHCSAGVGRTGVLILSELMIYCLEHNEKVEVPMMLRLLREQRMFMIQTIAQYKFVYQVLIQFLQNSRLI
notes: human PTPN14, catalytic PTP domain, residues 886-1187, untagged; also called PTPN14 PTP domain; nonreceptor-type protein tyrosine phosphatase 14; source: E. coli BL21(DE3) RIL, pET21a, purified (alone or copurified with E7)
B2: C-terminal domain of E7 from HPV11 (residues 45–98) (domain or fragment)
chain: AQPLTQHYQILTCCCGCDSNVRLVVECTDGDIRQLQDLLLGTLNIVCPICAPKP
notes: HPV11 E7, C-terminal domain, residues 45-98; Purified similarly to HPV18 E7, whose tag was removed with TEV; the complex mass of 80–85 kDa fits a cleaved tag; also called HPV11 E7 C-terminal domain; source: E. coli, MBP-modified pET28a, copurified with PTPN14 by mixing cell lysates
B3: MBP-tagged HPV18 E7 C-terminal domain (residues 54–105) (domain or fragment)
chain: AEPQRHTMLCMCCKCEARIKLVVESSADDLRAFQQLFLNTLSFVCPWCASQQ
notes: HPV18 E7, C-terminal domain, residues 54-105; also called His6–MBP-tagged C-terminal domain of HPV18 E7; source: E. coli BL21(DE3) RIL, modified pET28a, purified; not shown: His6, N-terminal, kept; MBP, N-terminal, kept
B4: C-terminal domain of E7 from HPV1a (residues 39–93) (domain or fragment)
chain: LVSPQQPYAVVASCAYCEKLVRLTVLADHSAIRQLEELLLRSLNIVCPLCTLQRQ
notes: HPV1a E7, C-terminal domain, residues 39-93; Purified similarly to HPV18 E7, whose tag was removed with TEV; the complex mass of 80–85 kDa fits a cleaved tag; also called HPV1a E7 C-terminal domain; source: E. coli, MBP-modified pET28a, copurified with PTPN14 by mixing cell lysates
B5: C-terminal domain of E7 from HPV16 (residues 45–98) (domain or fragment)
chain: AEPDRAHYNIVTFCCKCDSTLRLCVQSTHVDIRTLEDLLMGTLGIVCPICSQKP
notes: HPV16 E7, C-terminal domain, residues 45-98; Purified similarly to HPV18 E7, whose tag was removed with TEV; the complex mass of 80–85 kDa fits a cleaved tag; also called HPV16 E7 C-terminal domain; source: E. coli, MBP-modified pET28a, copurified with PTPN14 by mixing cell lysates
B6: PTP domain of PTPN21 (residues 873–1174) (domain or fragment, human, UniProt Q16825 873-1174, looked up)
chain: EVATRATNDERCKILEQRLEQGMVFTEYERILKKRLVDGECSTARLPENAERNRFQDVLPYDDVRVELVPTKENNTGYINASHIKVSVSGIEWDYIATQGPLQNTCQDFWQMVWEQGIAIIAMVTAEEEGGREKSFRYWPRLGSRHNTVTYGRFKITTRFRTDSGCYATTGLKMKHLLTGQERTVWHLQYTDWPEHGCPEDLKGFLSYLEEIQSVRRHTNSTSDPQSPNPPLLVHCSAGVGRTGVVILSEIMIACLEHNEVLDIPRVLDMLRQQRMMLVQTLCQYTFVYRVLIQFLKSSRLI
notes: human PTPN21, PTP domain, residues 873-1174; also called PTPN21 PTP domain; PTPD1; source: E. coli, modified pPRoEX HTa, purified (Ni-NTA, TEV, second Ni-NTA); not shown: His10, N-terminal, cleaved; green fluorescent protein, N-terminal, cleaved
B7: C-terminal domain (residues 54–105) of HPV18 E7, His6-MBP tag removed (domain or fragment)
chain: B3 chain
notes: HPV18 E7, C-terminal domain, residues 54-105; Homodimer by SEC-MALS; one zinc ion per monomer; also called HPV18 E7 C-terminal domain; HPV18 E7(54–105); source: E. coli BL21(DE3) RIL, modified pET28a, purified (Ni-NTA, TEV, second Ni-NTA, HiTrap Q, Superdex 75); not shown: His6, N-terminal, cleaved; MBP, N-terminal, cleaved

Experiments:
[1] = molecular target: C-terminal domain of E7 from HPV38 (residues 45–100) (human papillomavirus 38 (HPV38)); assay: SEC-MALS; Superdex 75 10/300 GL; 50 mM Tris-HCl pH 7.5, 200 mM NaCl, 2 mM dithiothreitol; 6 mg/mL E7 C-terminal domain, 3 mg/mL PTP domain or copurified complex
[2] = molecular target: C-terminal domain of E7 from HPV4 (residues 44–100) (human papillomavirus 4 (HPV4)); assay: as above
[3] = molecular target: B4; assay: as above; settings: both partners purified
[4] = molecular target: B2; assay: as above; settings: both partners purified
[5] = molecular target: B5; assay: as above; settings: both partners purified
[6] = molecular target: B7; assay: as above; settings: both partners purified
[7] = molecular target: B1; assay: SEC; copurified from mixed E. coli lysates (Ni-NTA, TEV, second Ni-NTA); final HiLoad 26/600 Superdex 75 pg gel filtration, fractions on SDS-PAGE with Coomassie staining; settings: both partners purified
[8] = molecular target: B1; assay: ITC; 25 °C, VP-ITC; PTP domain titrated into MBP-tagged HPV18 E7 (0.2 mM into 10 μM in Fig 1B); 20 mM Tris-HCl pH 7.5, 100 mM NaCl, 10 mM β-mercaptoethanol; one-to-one model; triplicate; settings: both partners purified
[9] = molecular target: B6; assay: as above; settings: both partners purified
[10] = molecular target: the molecule itself; assay: SEC-MALS; Superdex 75 10/300 GL; 50 mM Tris-HCl pH 7.5, 200 mM NaCl, 2 mM dithiothreitol; 6 mg/mL E7 C-terminal domain, 3 mg/mL PTP domain or copurified complex

Chain of C-terminal domain of E7 from HPV4 (residues 44–100) (human papillomavirus 4 (HPV4)) (Q07857 44-100 limits assumed): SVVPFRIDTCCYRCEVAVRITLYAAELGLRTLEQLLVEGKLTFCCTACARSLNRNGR
Chain of C-terminal domain of E7 from HPV38 (residues 45–100) (human papillomavirus 38 (HPV38)) (Q80908 45-100 limits assumed): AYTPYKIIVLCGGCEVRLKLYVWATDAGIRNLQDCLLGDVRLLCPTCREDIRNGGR

B1
stoichiometry N (PTPN14 per E7 (2:2)) [1]: 1
stoichiometry N (PTPN14 per E7 (2:2)) [2]: 1
stoichiometry N [3]: 1 PTPN14 per E7 (2:2)
stoichiometry N [4]: 1 PTPN14 per E7 (2:2)
stoichiometry N [5]: 1 PTPN14 per E7 (2:2)
stoichiometry N [6]: 1 PTPN14 per E7 (2:2)

B2
binding result [7]: binds

B3
Kd [8]: 18.2 nM
Kd [9]: 5.81 nM

B4
binding result [7]: binds

B5
binding result [7]: binds

B6
stoichiometry N [6]: 1 PTPN21 per E7 (2:2)

B7
stoichiometry N [10]: 2
